These are literature values, as cited in article PMC2574613.

For the data set, the target named is glycoprotein Ibα (Homo sapiens) (UniProt P07359).
Sequence of glycoprotein Ibα (Homo sapiens) (P07359 17-652): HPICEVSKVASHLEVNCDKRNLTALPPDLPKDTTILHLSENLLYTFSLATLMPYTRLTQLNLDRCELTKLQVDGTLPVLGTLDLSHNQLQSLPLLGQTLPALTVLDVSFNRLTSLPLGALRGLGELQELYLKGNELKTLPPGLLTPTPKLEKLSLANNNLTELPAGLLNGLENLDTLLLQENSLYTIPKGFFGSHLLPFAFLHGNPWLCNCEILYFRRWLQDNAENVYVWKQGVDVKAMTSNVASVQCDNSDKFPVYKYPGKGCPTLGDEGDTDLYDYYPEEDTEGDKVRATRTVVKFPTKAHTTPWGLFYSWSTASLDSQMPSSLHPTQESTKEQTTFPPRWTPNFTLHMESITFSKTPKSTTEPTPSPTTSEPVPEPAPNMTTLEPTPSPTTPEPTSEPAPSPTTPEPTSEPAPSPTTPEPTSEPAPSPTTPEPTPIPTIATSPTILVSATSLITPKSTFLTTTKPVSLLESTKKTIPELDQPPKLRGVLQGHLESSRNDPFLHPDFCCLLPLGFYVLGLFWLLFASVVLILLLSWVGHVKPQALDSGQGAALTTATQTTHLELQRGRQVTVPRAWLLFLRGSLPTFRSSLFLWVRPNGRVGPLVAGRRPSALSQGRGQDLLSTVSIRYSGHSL

Sequence of GspB N-terminal basic region (Q939N5 237-603): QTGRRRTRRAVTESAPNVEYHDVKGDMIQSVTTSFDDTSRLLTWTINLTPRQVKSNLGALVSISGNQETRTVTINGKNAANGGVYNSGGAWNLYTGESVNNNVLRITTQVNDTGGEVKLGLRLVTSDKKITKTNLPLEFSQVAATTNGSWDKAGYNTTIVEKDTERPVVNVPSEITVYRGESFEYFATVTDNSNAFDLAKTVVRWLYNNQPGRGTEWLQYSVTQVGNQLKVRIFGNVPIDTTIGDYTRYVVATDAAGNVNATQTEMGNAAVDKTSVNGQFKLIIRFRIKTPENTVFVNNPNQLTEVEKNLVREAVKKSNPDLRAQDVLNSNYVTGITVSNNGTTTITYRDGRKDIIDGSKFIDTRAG

Broadly, the Kd is a measure of binding affinity in units of concentration. “GspB N-terminal basic region (from UniProt Q939N5)”: the equilibrium dissociation constant (Kd) is 0.0238 µM.
